Measured values: article PMC3105044, “The Membrane Bound LRR Lipoprotein Slr, and the Cell Wall-Anchored M1 Protein from Streptococcus pyogenes Both Interact with Type I Collagen” (PLoS ONE, 2011)

B1: M1 protein from Streptococcus pyogenes, purified from culture supernatants of strain MC25 (natural protein)
chain: NGDGNPREVIEDLAANNPAIQNIRLRYENKDLKARLENAMEVAGRDFKRAEELEKAKQALEDQRKDLETKLKELQQDYDLAKESTSWDRQRLEKELEEKKEALELAIDQASRDYHRATALEKELEEKKKALELAIDQASQDYNRANVLEKELETITREQEINRNLLGNAKLELDQLSSEKEQLTIEKAKLEEEKQISDASRQSLRRDLDASREAKKQVEKDLANLTAELDKVKEDKQISDASRQGLRRDLDASREAKKQVEKDLANLTAELDKVKEEKQISDASRQGLRRDLDASREAKKQVEKALEEANSKLAALEKLNKELEESKKLTEKEKAELQAKLEAEAKALKEQLAKQAEELAKLRAGKASDSQTPDTKPGNKAVPGKGQAPQAGTKPNQNKAPMKETKRQLPST

Tests used:
[1] = biological target: Collagen type I (UniProt P02452); assay: SPR; collagen I immobilised by amine coupling on a CM3 chip (about 1500 RU); Slr or M1 diluted 2-fold from 500 nM, 35 µl/min, in 10 mM HEPES, 150 mM NaCl, 0.005% Surfactant P20, pH 7.5; BIAcore 2000; 1:1 Langmuir fit
[2] = biological target: T1, Collagen type I (UniProt P02452 162-1218; P08123 80-1119); assay: as above; conditions: both partners purified
T1 construct: collagen I alpha1 chain (printed as the α1 chain, 134 kDa); collagen I alpha2 chain (printed as the α2 chain, 130 kDa); Used non-denatured, denatured with 4 M guanidine hydrochloride, monomeric and fibrillar; also called collagen I; monomeric collagen I; source: bought: Sigma
T1 sequence (P02452 162-1218, chain 1 of 2): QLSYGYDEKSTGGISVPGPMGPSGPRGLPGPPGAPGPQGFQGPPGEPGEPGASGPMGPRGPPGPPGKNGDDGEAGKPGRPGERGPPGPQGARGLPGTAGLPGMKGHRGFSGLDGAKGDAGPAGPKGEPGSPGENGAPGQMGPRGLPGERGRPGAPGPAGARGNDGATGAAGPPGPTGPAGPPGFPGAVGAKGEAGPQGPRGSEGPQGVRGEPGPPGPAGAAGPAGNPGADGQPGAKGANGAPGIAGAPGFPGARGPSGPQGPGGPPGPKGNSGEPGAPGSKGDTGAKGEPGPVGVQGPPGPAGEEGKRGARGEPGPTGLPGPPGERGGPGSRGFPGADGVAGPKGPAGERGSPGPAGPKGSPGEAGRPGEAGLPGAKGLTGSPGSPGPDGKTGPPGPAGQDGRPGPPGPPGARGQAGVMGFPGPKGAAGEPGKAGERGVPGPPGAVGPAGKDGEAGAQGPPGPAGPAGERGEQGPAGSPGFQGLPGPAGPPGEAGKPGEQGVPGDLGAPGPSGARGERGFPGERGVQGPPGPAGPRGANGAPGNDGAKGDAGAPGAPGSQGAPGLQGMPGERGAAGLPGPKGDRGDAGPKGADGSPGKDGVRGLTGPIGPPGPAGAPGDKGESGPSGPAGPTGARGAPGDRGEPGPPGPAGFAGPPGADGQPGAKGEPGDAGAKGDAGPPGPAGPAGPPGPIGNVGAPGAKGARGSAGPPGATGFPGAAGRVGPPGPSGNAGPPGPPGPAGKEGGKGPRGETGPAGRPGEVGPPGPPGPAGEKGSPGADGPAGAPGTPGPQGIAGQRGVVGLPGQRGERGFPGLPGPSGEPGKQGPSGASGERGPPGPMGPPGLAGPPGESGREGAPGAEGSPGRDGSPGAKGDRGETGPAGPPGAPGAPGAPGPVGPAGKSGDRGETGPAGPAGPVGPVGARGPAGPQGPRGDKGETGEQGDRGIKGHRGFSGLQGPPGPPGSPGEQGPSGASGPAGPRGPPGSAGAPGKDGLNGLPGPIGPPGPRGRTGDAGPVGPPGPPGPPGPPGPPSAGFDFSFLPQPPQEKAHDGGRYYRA
T1 sequence (P08123 80-1119, chain 2 of 2): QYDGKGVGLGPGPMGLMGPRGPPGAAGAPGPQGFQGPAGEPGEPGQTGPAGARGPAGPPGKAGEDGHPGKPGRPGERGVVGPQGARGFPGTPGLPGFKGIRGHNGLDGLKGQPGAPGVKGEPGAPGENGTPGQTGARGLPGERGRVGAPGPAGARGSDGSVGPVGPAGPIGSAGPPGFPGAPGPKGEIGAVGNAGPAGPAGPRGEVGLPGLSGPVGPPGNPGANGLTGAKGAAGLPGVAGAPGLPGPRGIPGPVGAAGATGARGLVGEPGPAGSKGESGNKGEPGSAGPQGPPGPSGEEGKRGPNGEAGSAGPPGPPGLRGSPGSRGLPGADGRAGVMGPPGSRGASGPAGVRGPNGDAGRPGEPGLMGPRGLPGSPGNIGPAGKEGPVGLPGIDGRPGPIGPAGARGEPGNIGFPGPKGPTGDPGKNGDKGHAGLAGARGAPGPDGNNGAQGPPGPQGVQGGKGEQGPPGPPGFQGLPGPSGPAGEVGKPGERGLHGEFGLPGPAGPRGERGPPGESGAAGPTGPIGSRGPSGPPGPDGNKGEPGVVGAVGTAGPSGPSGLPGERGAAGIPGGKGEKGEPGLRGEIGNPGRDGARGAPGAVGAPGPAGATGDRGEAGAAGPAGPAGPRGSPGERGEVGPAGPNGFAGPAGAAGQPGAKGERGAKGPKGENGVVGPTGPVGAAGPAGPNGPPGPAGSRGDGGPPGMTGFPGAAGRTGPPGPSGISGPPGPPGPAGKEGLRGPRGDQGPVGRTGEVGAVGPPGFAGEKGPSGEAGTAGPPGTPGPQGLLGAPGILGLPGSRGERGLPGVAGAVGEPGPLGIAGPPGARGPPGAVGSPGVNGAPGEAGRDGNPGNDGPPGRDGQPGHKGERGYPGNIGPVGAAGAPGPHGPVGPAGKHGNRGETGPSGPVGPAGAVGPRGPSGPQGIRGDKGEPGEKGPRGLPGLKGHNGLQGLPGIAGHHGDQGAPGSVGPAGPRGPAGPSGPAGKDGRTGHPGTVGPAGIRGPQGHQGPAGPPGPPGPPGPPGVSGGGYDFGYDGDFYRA

Collagen type I (UniProt P02452), sequence (P02452 162-1218, chain 1 of 2): as the sequence (P02452 162-1218, chain 1 of 2) above
Collagen type I (UniProt P02452), sequence (P08123 80-1119, chain 2 of 2, further chain): as the sequence (P08123 80-1119, chain 2 of 2) above

Molecule	Kd [1]	Kd [2]
streptococcal leucine rich (Slr) protein, recombinant, GST tag removed (from UniProt F8THZ1 1-792) (natural protein)	0.012 µM	–
B1	–	0.054 µM
